Reference: PMC5432316

What follows are substances tested against recombinant gC1q domain of EMILIN1 (UniProt Q9Y6C2) (assay: cell adhesion assay (CAFCA, Centrifugal Assay for Fluorescence-based Cell Adhesion); ligand as substrate in CAFCA miniplates; calcein AM-labelled cells centrifuged onto the substrate, 20 min at 37°C, then centrifuged at 500 rpm; bound cells read by fluorescence; for HaCat cells also with integrin blocking antibodies).
Chain of UniProt Q9Y6C2 (Q9Y6C2 22-1016): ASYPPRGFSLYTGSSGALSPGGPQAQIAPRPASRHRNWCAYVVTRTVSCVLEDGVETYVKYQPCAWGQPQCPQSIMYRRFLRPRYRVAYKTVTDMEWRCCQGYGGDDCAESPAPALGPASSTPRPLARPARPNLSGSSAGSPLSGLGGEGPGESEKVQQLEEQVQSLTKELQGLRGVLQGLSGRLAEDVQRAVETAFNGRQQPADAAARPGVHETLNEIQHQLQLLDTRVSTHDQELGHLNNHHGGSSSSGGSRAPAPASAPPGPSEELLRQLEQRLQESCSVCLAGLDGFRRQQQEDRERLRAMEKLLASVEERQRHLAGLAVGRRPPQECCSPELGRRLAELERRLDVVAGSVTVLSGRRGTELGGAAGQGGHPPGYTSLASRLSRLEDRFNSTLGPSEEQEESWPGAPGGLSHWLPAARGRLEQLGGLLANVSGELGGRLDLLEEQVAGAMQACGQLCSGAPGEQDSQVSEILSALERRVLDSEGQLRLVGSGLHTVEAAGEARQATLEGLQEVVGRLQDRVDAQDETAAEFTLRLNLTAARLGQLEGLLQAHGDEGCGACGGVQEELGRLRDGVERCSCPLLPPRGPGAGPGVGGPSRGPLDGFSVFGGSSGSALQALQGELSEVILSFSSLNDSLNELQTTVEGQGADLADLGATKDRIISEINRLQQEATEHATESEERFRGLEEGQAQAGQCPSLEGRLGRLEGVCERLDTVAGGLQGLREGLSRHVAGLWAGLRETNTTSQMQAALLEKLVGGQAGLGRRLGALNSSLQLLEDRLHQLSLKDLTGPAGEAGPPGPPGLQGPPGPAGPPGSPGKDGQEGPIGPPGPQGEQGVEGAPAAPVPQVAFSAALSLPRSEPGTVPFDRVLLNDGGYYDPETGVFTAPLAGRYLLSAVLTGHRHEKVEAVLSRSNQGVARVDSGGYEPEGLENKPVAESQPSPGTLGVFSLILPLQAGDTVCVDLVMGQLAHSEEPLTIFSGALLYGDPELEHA

Row | percentage of adhesion | Substance
1 | 90% | α4β1 integrin on HT29 cells transfected with the wild type α4 integrin chain (from UniProt P13612 34-1032; P05556 21-798) (receptor)
2 | 60% | α4β1 integrin on SW480 cells transfected with the cytoplasmic tail-deleted α4 chain mutant R974 (from UniProt P05556 21-798) (receptor)
3 | 90% | α4β1 integrin on HT29 cells transfected with the cytoplasmic tail-deleted α4 chain mutant R974 (from UniProt P05556 21-798) (receptor)
4 | 60% | α4β1 integrin on SW480 cells transfected with the wild type α4 integrin chain (from UniProt P13612 34-1032; P05556 21-798) (receptor)
